# Source: patent publication US20200087408A1 (ANAPTYSBIO, published 2020)
# T1: human IL-36R (on cells) (human, UniProt Q9HB29 20-575)
# T1 sequence (looked up): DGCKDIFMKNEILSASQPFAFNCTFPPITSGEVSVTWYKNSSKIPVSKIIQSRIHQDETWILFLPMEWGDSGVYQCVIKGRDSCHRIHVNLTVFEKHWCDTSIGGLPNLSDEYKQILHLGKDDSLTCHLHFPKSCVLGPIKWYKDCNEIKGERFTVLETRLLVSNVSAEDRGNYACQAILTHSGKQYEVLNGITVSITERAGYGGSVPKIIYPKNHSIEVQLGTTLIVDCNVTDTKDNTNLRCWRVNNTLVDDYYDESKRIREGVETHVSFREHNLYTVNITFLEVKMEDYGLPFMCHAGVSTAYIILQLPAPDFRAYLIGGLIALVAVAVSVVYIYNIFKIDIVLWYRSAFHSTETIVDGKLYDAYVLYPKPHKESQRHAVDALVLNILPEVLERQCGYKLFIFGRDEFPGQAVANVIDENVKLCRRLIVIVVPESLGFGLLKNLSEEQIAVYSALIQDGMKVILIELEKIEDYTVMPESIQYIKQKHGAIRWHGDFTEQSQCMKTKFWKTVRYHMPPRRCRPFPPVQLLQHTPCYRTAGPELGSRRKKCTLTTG
# T2: extracellular domain of human IL-36R (human, UniProt Q9HB29 20-335)
# T2 construct: extracellular domain; Immobilised on the chip in the BIACORE assay; soluble and bead-coupled in the KINEXA assay; also called soluble human IL-36R extracellular domain
# T2 sequence (looked up): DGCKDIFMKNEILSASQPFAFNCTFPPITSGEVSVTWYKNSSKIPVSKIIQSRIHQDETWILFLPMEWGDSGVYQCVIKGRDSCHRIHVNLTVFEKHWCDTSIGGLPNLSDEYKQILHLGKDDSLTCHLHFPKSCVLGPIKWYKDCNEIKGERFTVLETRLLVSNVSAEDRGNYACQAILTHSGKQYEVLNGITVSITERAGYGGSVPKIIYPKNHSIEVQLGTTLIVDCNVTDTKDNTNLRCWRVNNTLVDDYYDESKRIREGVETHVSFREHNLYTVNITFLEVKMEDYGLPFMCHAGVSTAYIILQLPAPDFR
# Experiments:
# [1] = molecular target: T1, human IL-36R (on cells); assay: cell-based or functional assay
# [2] = molecular target: T2, extracellular domain of human IL-36R; assay: BIACORE T200 SPR, human IL-36R extracellular domain immobilised, antibody injected
# Method: The binding affinities of various purified antibodies comprising immunoglobulin heavy chain (HC) and light chain (LC) polypeptides described herein were evaluated using BIACORE™ T200 […] assays. BIACORE™ T200 evaluation software (GE Healthcare, Buckinghamshire, United Kingdom) is used to determine antibody-antigen binding kinetics and affinity. The extracellular domain of human IL-36R was immobilized at approximately 100 RU onto a CMS sensor chip (GE Healthcare, Waukesha, Wis.) using amine coupling chemistry. HBS-EP+ buffer (0.01 M HEPES, 0.15 M NaCl, 3 mM EDTA, 0.05% Polysorbate, pH 7.6) (Teknova, Hollister, Calif.) was used to reconstitute each antibody at various concentrations Each antibody concentration was then injected for two to three minutes over immobilized antigen at a flow rate of 30 μL/min, and allowed to dissociate for 15 minutes. The surface was regenerated with 60 μL of 3 M MgCl₂ after each cycle. Association and dissociation kinetic constants (kon and koff) were fit globally using a 1:1 binding model with mass transport with the BIACORE™ T200 evaluation software in order to report on- and off-rates (ka and kd, respectively), as well as affinities (KD).
# [3] = molecular target: T1, human IL-36R (on cells); assay: cell-based or functional assay; remark: listed apart in the source
# [4] = molecular target: cynomolgus IL-36R (on cells, allelic variant not stated) (cynomolgus monkey), A0A2K5; assay: cell-based or functional assay
# [5] = molecular target: T1, human IL-36R (on cells); assay: cell-based or functional assay; remark: listed apart in the source
# [6] = molecular target: cynomolgus monkey IL-36R variant 3 (on cells) (cynomolgus monkey), A0A2K5; assay: cell-based or functional assay
# [7] = molecular target: cynomolgus monkey IL-36R variant 2 (on cells) (cynomolgus monkey), A0A2K5; assay: cell-based or functional assay
# [8] = molecular target: T2, extracellular domain of human IL-36R; assay: KINEXA 3000 solution-phase equilibrium, soluble human IL-36R extracellular domain
# Method: The binding affinities of various purified antibodies comprising immunoglobulin heavy chain (HC) and light chain (LC) polypeptides described herein also were evaluated using a KINEXA® 3000 assay (Sapidyne Instruments, Boise, Id.) assays. KINEXA® technology measures the amount of unbound/free antibody molecule in solution phase after incubation with varying concentrations of antigen. Measuring binding events in the solution phase with micro beads for maximized surface area avoids mass transport limitations and mobility effects inherent to methods that measure binding to a solid phase. For each experiment, 50 μg of soluble human or cyno IL-36R extracellular domain was amine-coupled to 50 mg of UltraLink Biosupport beads (Thermo Fisher Scientific, Waltham, Mass.). […] Antibody-antigen solution was then flowed over antigen-coupled beads at a rate of 0.25 mL/min. Free antibody captured by beads was detected using ALEXA FLUOR™ 647-conjugated AffiniPure Donkey Anti-Human IgG (H+L) (Jackson ImmunoResearch, West Grove, Pa.) (500 ng/ml). The KD and/or ABC (active binding concentration) of antibody was obtained from non-linear regression analysis using a one-site homogeneous binding model in the KINEXA™ Pro Software.
# Sequence of cynomolgus IL-36R (on cells, allelic variant not stated) (cynomolgus monkey), A0A2K5 (chain, as listed by the source mutant): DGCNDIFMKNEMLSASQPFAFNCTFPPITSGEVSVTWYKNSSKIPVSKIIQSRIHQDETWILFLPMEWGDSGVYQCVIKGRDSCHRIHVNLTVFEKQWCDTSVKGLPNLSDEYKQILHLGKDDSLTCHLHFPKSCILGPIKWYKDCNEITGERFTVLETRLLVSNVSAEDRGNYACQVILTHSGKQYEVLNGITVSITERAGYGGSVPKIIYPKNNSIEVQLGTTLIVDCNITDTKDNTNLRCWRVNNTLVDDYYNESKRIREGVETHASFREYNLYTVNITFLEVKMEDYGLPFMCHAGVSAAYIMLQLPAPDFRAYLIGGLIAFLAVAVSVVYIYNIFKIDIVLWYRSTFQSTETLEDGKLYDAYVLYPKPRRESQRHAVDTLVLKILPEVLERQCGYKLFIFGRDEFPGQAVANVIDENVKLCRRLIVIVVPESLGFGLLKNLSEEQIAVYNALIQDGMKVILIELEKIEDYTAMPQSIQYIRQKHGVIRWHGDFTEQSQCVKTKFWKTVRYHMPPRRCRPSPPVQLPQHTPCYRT
# Sequence of cynomolgus monkey IL-36R variant 3 (on cells) (cynomolgus monkey), A0A2K5 (chain, as listed by the source mutant): as above
# Sequence of cynomolgus monkey IL-36R variant 2 (on cells) (cynomolgus monkey), A0A2K5 (chain, as listed by the source mutant): as above
Binder,"EC50 (nM), HEK human IL-36R IL-8 luciferase reporter assay, 20 ng/ml hIL-36β [1] [nM]","EC50 (nM), HEK human IL-36R IL-8 luciferase reporter assay, 200 ng/ml hIL-36γ [1] [nM]","EC50 (nM), IL-8 secretion by primary human monocytes, human IL-36β [3] [nM]","EC50 (nM), IL-8 secretion by primary human monocytes, human IL-36γ [3] [nM]","EC50 (nM), HEK cyno IL-36R IL-8 luciferase reporter assay, 300 ng/ml cIL-36γ [4] [nM]","EC50 (nM), IL-8 secretion by primary cynomolgus keratinocytes, 10 ng/ml cyno IL-36β [4] [nM]","EC50 (nM), IL-8 secretion by primary cynomolgus keratinocytes, 50 ng/ml cyno IL-36α [4] [nM]","EC50 (nM), IL-8 secretion by primary cynomolgus keratinocytes, 250 ng/ml cyno IL-36γ [4] [nM]",also measured
"Chimeric 5D3 (APE3849) (antibody, V domains shown) VH: QVQLQQSGPELVRPGASVRMSCKASDYTFTNYWMHWVKQRPGQGLEWIGMFDPSNSVTRLNQKFKDKATLNVDKSSNTAYIQFSSLTFEDSAVYYCARTTSMIIGGFAYWGQGTLVTVSS VL: DIVMTQAAFSNPVTLGTSASISCRSSKSLLHSNGITYFYWYLQRPGQSPQLLIYQMSNLASGVPDRFSGSGSGTDFTLRISRVEAEDVGIYYCAQNLELPLTFGAGTKLELK",1.3,3.1,–,–,–,–,–,–,–
"Chimeric 18D4 (APE3847) (antibody, V domains shown) VH: DVQFQESGPGLVKPSQSLSLTCTVTGYSITSDFAWNWIRQFPGNKLEWMGYISYSGDTNYNPSLKSRISITRDTSKNQFFLQLNSVTTEDTATYFCAIRGPYSFTYWGPGTLVTVSS VL: DIQMTQTTSSLSASLGDRVTINCRASQDINNYLNWYQQKPDGTIRLLIYYTSRLHSGVPSRFSPNGSGTDYSLTINNLEQEDIATYFCQQGHTLPWTFGGGTKLEIK",4.2,3.6,6,3,0.51,–,–,–,–
"APE6904 (antibody, V domains shown, also called 18D4 Humanized) VH: DLQFQESGPGLVKPSQTLSLTCTVTGYSITADFAWNWIRQPPGKGLEWIGYISYSGDTNYNPSLKSRVTITRDTSKNQFSLKLSSVTAADTAVYFCAIRGPYSFTYWGQGTLVTVSS VL: DIQMTQSPSSLSASVGDRVTITCRASQWINNYLNWYQQKPGKAPKLLIYYTSMLHSGVPSRFSPSGSGNDYTFTISSLQPEDIATYYCQQGHTLPWTFGGGTKVEIKR",–,–,–,–,–,–,–,–,Kd [8]: 0.027 nM
"Chimeric 1D9 (APE3798) (antibody, V domains shown) VH: QVQLQQSGPELVKPGALVKISCKASGFTFTSYDINWVRQRPGQGLEWIGWIYPGDGSTKYNEKFKGKATLTADKSSSTAYMQLSSLTSENSAVYFCTRSFYTMDYWGQGTSVTVSS VL: DIVMTQAAPSVPVTPGESVSISCRSSKSLLHSNGNTYLYWFLQRPGQSPQLLISRMSNLASGVPDRFSGSGSGTAFTLRISRVEAEDVGVYYCMQHLEYPFTFGSGTKLEIK",0.267,0.093,–,–,–,–,–,–,–

# Further lines, with some results ahead:
"EC50 (nM), HEK human IL-36R IL-8 luciferase reporter assay, 20 ng/ml hIL-36β [1] [nM]","EC50 (nM), HEK human IL-36R IL-8 luciferase reporter assay, 200 ng/ml hIL-36γ [1] [nM]","EC50 (nM), IL-8 secretion by primary human monocytes, human IL-36β [3] [nM]","EC50 (nM), IL-8 secretion by primary human monocytes, human IL-36γ [3] [nM]","EC50 (nM), HEK cyno IL-36R IL-8 luciferase reporter assay, 300 ng/ml cIL-36γ [4] [nM]","EC50 (nM), IL-8 secretion by primary cynomolgus keratinocytes, 10 ng/ml cyno IL-36β [4] [nM]","EC50 (nM), IL-8 secretion by primary cynomolgus keratinocytes, 50 ng/ml cyno IL-36α [4] [nM]","EC50 (nM), IL-8 secretion by primary cynomolgus keratinocytes, 250 ng/ml cyno IL-36γ [4] [nM]",Binder,also measured
0.24,0.35,0.9,0.79,0.29,1.4,1.4,1,"Hzd 5D3 (APE6060) (antibody, V domains shown, also called 5D3 Humanized) VH: QVQLVQSGAEVKKPGASVKVSCKASGYTFTNYWMNWVRQAPRQGLEWMGMFHPTGDVTRLNQKFKDRVTMTRDTSTSTVYMELSSLRSEDTAVYYCARTTSMIIGGFAYWGQGTLVTVSS VL: DIVMTQTPLSLSVTPGQPASISCRSSKSLLHRNAITYFYWYLQKPGQPPQLLIYQMSNLASGVPDRFSGSGSGTDFTLKISRVEAEDVGVYYCAQNLELPLTFGGGTKVEIK","Kd [2]: 0.05 nM; EC50 (nM), IL-8 secretion by primary human monocytes, human IL-36α [3]: 0.081 nM; EC50 (nM), HEK human IL-36R IL-8 luciferase reporter assay, 50 ng/ml hIL-36α [1]: 0.23 nM; EC50 (nM), HEK cyno IL-36R IL-8 luciferase reporter assay, 2 µg/ml cIL-36α [4]: 0.067 nM; EC50 (nM), HEK cyno IL-36R IL-8 luciferase reporter assay, 10 µg/ml cIL-36β [4]: 0.17 nM; EC50 (nM), IL-8 secretion by primary cynomolgus PBMCs, 10 ng/ml cyno IL-36β [4]: 1.7 nM; EC50 (nM), IL-8 secretion by primary cynomolgus PBMCs, 50 ng/ml cyno IL-36α [4]: 0.98 nM; EC50 (nM), IL-8 secretion by primary cynomolgus PBMCs, 250 ng/ml cyno IL-36γ [4]: 1.4 nM; EC50 (nM), IL-8 secretion by primary human keratinocytes, 1 ng/ml human IL-36β [5]: 0.217 nM; EC50 (nM), IL-8 secretion by primary human keratinocytes, 10 ng/ml human IL-36α [5]: 0.08 nM; EC50 (nM), IL-8 secretion by primary human keratinocytes, 100 ng/ml human IL-36γ [5]: 0.08 nM"
0.3,0.45,0.105,0.084,0.31,2,1.2,1.2,"Hzd 5D3 (APE6194) (antibody, V domains shown, also called 5D3 Humanized) VH: QVQLVQSGAEVKKPGASVKVSCKASGYTFTNYWMNWVRQAPRQGLEWMGMFHPYGDVTRLNQKFKDRVTMTRDTSTSTVYMELSSLRSEDTAVYYCARTTSMIIGGFAYWGQGTLVTVSS VL: DIVMTQTPLSLSVTPGQPASISCRSSKSLLHRNAITYFYWYLHKPGQPPQLLIYQMSNLASGVPDRFSGSGSGTDFTLKISRVEAEDVGVYYCAQNLELPLTFGGGTKVEIK","Kd [2]: 0.022 nM; EC50 (nM), IL-8 secretion by primary human monocytes, human IL-36α [3]: 0.09 nM; EC50 (nM), HEK human IL-36R IL-8 luciferase reporter assay, 50 ng/ml hIL-36α [1]: 0.17 nM; EC50 (nM), HEK cyno IL-36R IL-8 luciferase reporter assay, 2 µg/ml cIL-36α [4]: 0.073 nM; EC50 (nM), HEK cyno IL-36R IL-8 luciferase reporter assay, 10 µg/ml cIL-36β [4]: 0.19 nM; EC50 (nM), IL-8 secretion by primary cynomolgus PBMCs, 10 ng/ml cyno IL-36β [4]: 1.6 nM; EC50 (nM), IL-8 secretion by primary cynomolgus PBMCs, 50 ng/ml cyno IL-36α [4]: 1.5 nM; EC50 (nM), IL-8 secretion by primary cynomolgus PBMCs, 250 ng/ml cyno IL-36γ [4]: 1.6 nM; EC50 (nM), IL-8 secretion by primary human keratinocytes, 1 ng/ml human IL-36β [5]: 0.164 nM; EC50 (nM), IL-8 secretion by primary human keratinocytes, 10 ng/ml human IL-36α [5]: 0.105 nM; EC50 (nM), IL-8 secretion by primary human keratinocytes, 100 ng/ml human IL-36γ [5]: 0.083 nM"
–,–,–,–,0.24,1.8,2.3,5.6,"Hzd 18D4 (APE7247) (antibody, V domains shown) VH: DVQFQESGPGLVKPSQTLSLTCTVTGYSITADFAWNWIRQPPGKGLEWIGYISYSGDTNYNPSLKSRVTITRDTSKNQFSLKLSSVTAADTAVYFCAIRGPYSFTYWGQGTLVTVSSA VL: DIQMTQSPSSLSASVGDRVTITCRASQWINNYLNWYQQKPGKAPKLLIYYTSMLHSGVPSRFSPSGSGNDYTFTISSLQPEDIATYYCQQGHTLPWTFGGGTKVEIKRT","EC50 (nM), IL-8 luciferase reporter assay, 300 ng/ml IL-36γ (Cyno IL-36R variant 3) [6]: 0.42 nM; EC50 (nM), IL-8 luciferase reporter assay, 300 ng/ml IL-36γ (Cyno IL-36R variant 2) [7]: 0.065 nM"
–,11,–,–,–,–,–,–,"Hzd 18D4 (APE5713) (antibody, V domains shown) VH: QVQFQESGPGLVKPSQTLSLTCTVSGYSITSDFAWNWIRQPPGKGLEWIGYISYSGDTNYNPSLKSRVTISRDTSKNQFSLKLSSVTAADTAVYFCAIRGPYSFTYWGQGTLVTVSS VL: DIQMTQSPSSLSASVGDRVTITCRASQDINNYLNWYQQKPGKAPKLLIYYTSRLHSGVPSRFSPSGSGTDYTFTISSLQPEDIATYYCQQGHTLPWTFGGGTKVEIK",–
